Results as given in the DeepSol protein solubility set.

Test: soluble on expression in E. coli; label from the status in PepcDB or PDB records

Sequence	soluble on expression in E. coli
MRLFIVQAMFTEYRPTHGYDEYFCREQSAPRADLEPLLSSLGAMGLAELNRSHASASNLLRRLGATFRLNGSGLHGGERILPFDPLPRLIHRQEWSVLERGLVQRLEAIDQFLADVYGPQRILNDGVIPREDVESSQGWRPQMQDIAVPLNRWCHISGLDLIRDGDGTWRVLEDNLRCPSGVAYFLENRRVMKRLFPSLFQGRTVQPIDDYPSHLLRTLQDLAPWSDAPRVVLLTPGVFNSAYFEHSYLAQQMGIALVEGRDLICEDGRVWMRSTAGREPVDVIYRRIDDDFLDPNVFRRDSMLGVPGLIDAMRSGRVAIANAPGSGVADDKLIYAYVPAMIRYYLNEEPIIDNVPTYLCSRDDDRRYVLEHLNELVVKSVAEAGGYGMLIGPHASSEEIESFAVKIKAHPRNFIAQPTLQLSTVPSLSEGELYPCHVDLRPYVLRGKSDWVSPGGLTRVALKRGSLVVNSSQGGGCKDTWVVSDSAVTAGNQELVPC	not soluble
MSLTSFSRLNTNLLQLKSKHSSDNAQHLYVNGNVGSSTEEITSVEYSKLLQLKLIDESLSFQWCNNYTVLSIYSMKETFARKTIYIHFPKPLLNKWFTAVVYESSETTSNLCFDVILKDGIFINLSLPIDFILSRTRQNEYPENWLKVLNPYDFSVRPPQCLFHVDNTFSVVFLKDGGLLGLKRIPLEILNDFELQPVLFNDSSYFQSFTRMFSKYDNHNSAVVSAELLNDKYLVTLTNDATIKIWDLTTYQLNAHFDLKEKNQQVNYGAAGKYMIICGSLLFVYLPAGNGSFQVIQLENTHSSRISFKPLNVNIPLNLSSYSIWSLIDIQLVKSSIVKQSGLNLVLLWKSNTVTKLQLLSFEDSLYSSYKWIDGNSTYLSDLLDDSDLITNGNMEKALLNLKSHYSQSTYDDAQKILNKNNVMVQINDPHNQDYLNNLEALLKELHKQYQEPSTLTILDDEIIVVNSLHMYHHSTYKLDSQLETIFFNIFERKEPSSQLELFLNILHGFSTTITSETLNKISEKFLDMVNGSINPSLSLKNKITIVFQDCLTNGFQSANLSKLLENLNSIDVVEVLSEFIHCDLKVGAFSVIDLLDTDIFLSVLSMESLKQTLSIMDKFIIDILLVFTIVDINYEVFAEKLSKLITLHFNISLWLQVYQIDKLLAISETFGHVTKYNYGAQLKSYSDITDFTTLMVGFVKNSEGHHHHHH	not soluble
MSLMIRAITIFVTNYSKISDYTEKLSKLNDNNIWSKRISLPPTPIDLSLSKLIELLPTTHSEIIFSLINLQEKDKRLREIKDILKSDKRIYVHVLVKTTDNLKDLAKLIISLEPEEASRFALLFNQDFLLTPYFPTSSANTVYDSFGISLLYVDEFKQGKINEALSKADTIGRQLEKKLNIKYLGIDASLSPWMESSVGEIVESRSKKMFDISNLSAVAEINREIFEGVWRNRVNPIGFSELMLPIAEDNLLRERVKEGSLTLKDLLLMSYVCVAGIDMVGIYSDLVTYENILKSVYYIQYTKRKPYGVRMIPTNGSPVLTKMFGEIPEVKVVEGHHHHHH	soluble
MFFIGIFGIENKQKEVKQLENIYCKTCSTRTMGTLIKSYEYFHIFFIPIFRWNEKYYVMCKRCNSIYEISKEKGKAIENGEINEVNLEDMTLIQEGQVYGKRAVKKVCPNCGKTVDGDYNYCPYCGSEILEHHHHHH	not soluble
MAQLFFKYGAMNSGKTIEILKVAHNYEEQDKPVVLMTSGLDTRDGVGKVSSRIGLRRDAIPIFEETNVFDLINDLSYKPFCVLVDECQFLNKHHVIEFARIVDELDIPVMAFGLKNDFRNELFEGSKYLLLYADKLEELKTICWFCHKKATMNLHYIDGNPVYEGDQVQIGGNEAYYPVCRKHYFHPKTVNEEQ	not soluble
MGSDKIHHHHHHMANMKNSNDRIILFRKAGEKVDATKMLFLTEYGLSHEADTDTEDTMDGSYNTGGSVESTMSGTAKMFYGDDFADEIEDAVVDRVLYEAWEVESRIPGKNGDATKFKAKYFQGFHNKFELKAEANGIDEYEYEYGVNGRFQRGFATLPEAVTKKLKATGYRFHDTTKADALTGEDLTAIPQPKVDSSTVTPGEV	not soluble
MGSDKIHHHHHHMPRGDIGIDLGTASIIVYKRGEGIVLHEPSVVAISEKTGEIVAIGEEAKKMLGKTPEGLKAIRPMKDGVIADYRMIEAIIRNFLKKIIGRFSFVKPSLIIGVPTKITEVEKRAVFEAGLNAGARRVHIVSEPIAAAIGAGIDVMASEGNMVVDIGGGTTDIAVISLGGTVVGESVRMAGDAMDEAIVKFIRKKYGLIIGESTAEEIKKRIGKTHPAFENYEIEIKGRDVVTGLPRTDRVSSEDVREAIEPIIFALLTKLKNVLERTPPELSADIINNGIRLTGGGALLRGLDRTIYDEIHVKTIVADDPITCVARGTGILLEDEKLLKTVCETYSR	not soluble
MGHHHHHHSHMSNTDASGEKRVTGTSERREQIIQRLRQQGSVQVNDLSALYGVSTVTIRNDLAFLEKQGIAVRAYGGALICDSTTPSVEPSVEDKSALNTAMKRSVAKAAVELIQPGHRVILDSGTTTFEIARLMRKYTDVIAMTNGMNVANALLEAEGVELLMTGGHLRRQSQSFYGDQAEQSLQNYHFDMLFLGVDAIDLERGVSTHNEDEARLSRRMCEVAERIIVVTDSSKFNRSSLHKIIDTQRIDMIIVDEGIPADSLEGLRKAGVEVILVGDHASSL	soluble
MGSDKIHHHHHHMSTAKTLTLEMHLGDLMIGELSFDATADTFAVHYTKDWQQSGFPLSPTIPLDGTGTSNQISMFLVNLLPENKGLDYLIESLGVSKGNTFALIRAIGLDTAGAIAFVPKGALLPETQLRPIKAEEVIQRIEDPTMWPMEIWDGKPRLSVAGVQPKLNLFYNGKEFAFAEGTLSSTHIVKFEKYHHLVINEFITMRLAKVLGMNVANVDIVHFGRYKALCVERFDRRNIPGEQRVLRRHIVDSCQALGFSVSKKYERNFGTGRDVKDIREGVSFNRLFSLAAKCRNPVAAKQDMLQWALFNLLTGNADAHGKNYSFFMTPSGMEPTPWYDLVSVDMYEDFEQQLAMAIDDEFDPNSIYAYQLAAFMDGLGLPRNLLISNLTRIARRIPQAIAEVILMLPPLDEDEASFVAHYKTQLLARCERYLGFVDEVRDVEV	not soluble
MISEKPAAKRIQSGGCAIHCQDCSISQLCIPFTLNESELDQLDQIIERKKPIQKGQELFKAGDELRSLYAIRSGTIKSYTITEQGDEQITAFHLAGDLVGFDAITGDQHPSFAQALETSMVCEIPYEILDDLSGKMPKLRQQIMRLMSNEIKGDQEMILLLSKKNAEERLAAFLYNLSTRFSQRGFSPREFRLTMTRGDIGNYLGLTVETISRLLGRFQKSEILSVKGKYITILNHAELMELAGVSKESK	soluble
MGSDKIHHHHHHMTIGLSCNALKYGGGLERYAIDLARGLADAGVRPLVFARSFDSSVPEYQCVEPRRINVSFLPGKCRDAWFSWRLRAARRAAPVDVLIGCNRVDSSDIAICGGTHLGFLDAIGRMPTFSDRRQIALERRQYARARFVVAHSMLMRDELRRFYGLSDDKIRVLFPPVDAARFTPVDAVRRAELRTRFGFADDEVVLLFPSSSHERKGLPLIEAILRDAGPRVVVAVAGRPPERTSERLRYVGYVKDIEDGYRAADFTILASKYEPFGLVGVESVMCGTPVILPSNIGCCDAIAPSAKLVFAPGDAAGLRGMLDEAVRRVRAGAVRVESGAAARAAIQYDPSVARHVAQLLDLAAEAASDRRNGGR	not soluble
QLKNNAAIQIDRVDNTEITETVSFDAEPTYVDDPEAPAGDETVVEEGAPGTKEVTRTVTTVNGQEESSTVINEVEITAAKPATISRGTKT	not soluble
APAHADHQITKRTDAENMYNTIQFLSQAPRVAGSPEELKAVRYIEQQFKSYGYHVEVQPFQFEGYTAPSEVTLKIGTEKKEGEAFTYSPNSDVTAELVYVGLGTTADVAGKDLNGKIALIQRGNISFADKVRNAAKQGAKAVIIYNNTDGKLNGTLGGSDASFVAAVGITKQEGDALAANLRAGEKITATVKVAGAEVKTLTSHNVIATKKPDANKKNTNDIIIIGSHHDSVEKAPGANDDASGVAVTLELARVMSKLKTDTELRFITFGAEENGLIGSKKYAASLSEDEIKRTIGMFQLDMVGSKDAGDLIMYTIDGKKNRVTDLGAAASSRLSGVLPYGQEGRSDHESFHALGIPAALFIHAPVEPWYHTPNDTLDKISKEKLDNVADIVGSAVYQAARPGELVIEPIDYPRRNVELQN	soluble
MINNSFWQGKRVFVTGHTGFKGGWLSLWLQTMGATVKGYSLTAPTVPSLFETARVADGMQSEIGDIRDQNKLLESIREFQPEIVFHMAAQPLVRLSYSEPVETYSTNVMGTVYLLEAIRHVGGVKAVVNITSDKCYDNKEWIWGYRENEAMGGYDPYSNSKGCAELVTSSYRNSFFNPANYGQHGTAVATVRAGNVIGGGDWALDRIVPDILRAFEQSQPVIIRNPHAIRPWQHVLEPLSGYLLLAQKLYTDGAEYAEGWNFGPNDADATPVKNIVEQMVKYWGEGASWQLDGNAHPHEAHYLKLDCSKAKMQLGWHPRWNLNTTLEYIVGWHKNWLSGTDMHEYSITEINNYMNTK	soluble
MGSDKIHHHHHHMGQKVHPRGFRLGLSADWQAKWFNEKNYKEWLLEDEEIRKIIKNKYYHAGISEIYVERPDAERINITVKTARPGIIIGRKGSEITSLREELERKFNRRVVINIEEIKTPELDAQLVAESIASRIEKRASYKVAMKRAIMNAMRKGAQGIKVMVAGRLGGAEIARREWYLRGRLPLQKIKAIIDYGTATAWTKYGTIGIKVWIYKGDADI	not soluble
VGKEKAEVELLQVDADLQAEIVGKYNADLQKAVQIEEKKAREIATEAVKEHVTAEYEERYAEHEEHDRIMRDVAEILEQMEHAEVRRLITEDKVRPDGRRVDEIRP	not soluble
MAYPGHPGAGGGYYPGGYGGAPGGPAFPGQTQDPLYGYFAAVAGQDGQIDADELQRCLTQSGIAGGYKPFNLETCRLMVSMLDRDMSGTMGFNEFKELWAVLNGWRQHFISLDTDRSGTVDPQELQKALTTMGFRLSPQAVNSIAKRYSTNGKITFDDYIACCVKLRALTDSFRRRDTAQQGVVNFPYDDFIQCVMSV	soluble
MFVMIIQGQVLGGYPRSRYVRRALRRLEQGEISAVELMGVLNQASSAVIGAQVSQGFPYVVDGMLDWHDIFRPFAEAWRNVTPTGLLRYFDNNFFYRIPLFTGEPEPTDPVLAPRVLSYSQVAEPAKLKVVVPGPVTFTLMSRNESGISDEELAEAIANLLADEVEKAVKAGAGFVQVDEPILSEPKATRDHALLAAELAGVIASRSGSAETMLSVYFYPPKPEVYEALLEARVDYLMVDLVAAGSKGLEVITGKGAGEGLALGVIDARSIYSESLEKVEAPVRRIVESVKPEKIILTTSTWLDLIPYRYALRKTALLGRYTYALAEKLGAQIAVAGGEMAGDPLEHHHHHH	not soluble
MHFVKKVPTTEEEKAAKQKEHTKRSQQFLHVRDKIVAKREKGEYDDEILSLTQAILEKNADIYTFWNIRRTTIELRMEANEKVQQSADAEEEEKTKSSQKIENLLAGELFLSYECIKSNPKSYSAWYQRAWALQRQSAPDFKKELALCEKALQLDCRNFHCWDHRRIVARMAKRSEAEELEFSNKLINDNFSNYSAWHYRSIALKNIHRDEKTGAPKIDDELIASELQKVKNAFFMDAEDQSAWTYTRWLLEVGSGKEFLRPESHTPIELISASFHGNNTTLVFSRAVTIQFLLTFVDTENTTGWRAFSSTSPNPTSSRVWQYLSDTPLRVVTSNPTDLENISWTELNEQPYVNLDRLKTIYDVVEVPQPAYIGELLEDCKQLIELEPKNKWPLYMRTLVLLEYQPIKSYEEIIKNLENLSENLDPKRSELYKSLISRQNLNFSIREQFERILGPDTDWLTCRYSKLTSLEGVEYLAGFVGSADFSGNRLKEIQRIVLPNLKSLTINENPIESLPPSPCLSHLTFFSIAGTQIASVSAVMPFFQTIPSLDRLVFCETPLVEKTEELRAQLPGVRLIPHWL	soluble
